Laboratory results from patent EP0730609B1 (SMITHKLINE BEECHAM CORPORATION, dated 2005).

Key:
[1] = molecular target: T1, recombinant human IL4 (E. coli, non-glycosylated) (human, UniProt P05112 25-153); assay: cell-based or functional assay
T1 sequence (looked up): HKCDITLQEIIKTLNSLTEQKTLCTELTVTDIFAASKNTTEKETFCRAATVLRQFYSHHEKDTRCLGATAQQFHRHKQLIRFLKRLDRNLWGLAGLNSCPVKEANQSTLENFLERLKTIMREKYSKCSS

[2] = molecular target: T1, recombinant human IL4 (E. coli, …); assay: titration microcalorimetry, 25°C, pH 7.4, 150 mM NaCl
[3] = molecular target: T1, recombinant human IL4 (E. coli, …); assay: titration microcalorimetry, measured at 60°C and calculated for 25°C, pH 7.4, 150 mM NaCl

B1: humanized 3B9 (IgG1) (antibody, V domains shown)
VH: QVTLRESGPALVKPTQTLTLTCTFSGFSLSTSGMGVSWIRQPPGKGLEWLAHIYWDDDKRYNPSLKSRLTISKDTSRNQVVLTMTNMDPVDTATYYCARRETVFYWYFDVWGRGTPVTVSS
VL: IVMTQSPDSLAVSLGERATINCKASQSVDYDGDSYMNWYQQKPGQPPKLLIYAASNLESGVPDRFSGSGSGTDFTLTISSLQAEDVAVYYCQQSNEDPPRFGGGTKVEIKR
Question: B1 was tested. Which “B cell (inhibition of IL4-stimulated B lymphocyte proliferation), IC50” value [1] did it give?
Answer: 0.047 nM

Question: And the “CD23 induction (inhibition of IL4-induced CD23 expression on B lymphocytes), IC50” value [1]?
Answer: 0.333 nM

Question: What about the “IgE synthesis (inhibition of IL4-driven IgE secretion), IC50” value [1] of the same binder?
Answer: 0.054 nM

Question: What about the “T cell (inhibition of IL4-stimulated T lymphocyte proliferation), IC50” value [1] of the same binder?
Answer: 0.044 nM

Question: And the “-TΔS” value [2]?
Answer: 8.2 kcal/mol IL4

Question: What about the ΔG [2] of the same binder?
Answer: -13.6 kcal/mol IL4

Question: What about the ΔH [2] of the same binder?
Answer: -21.8 kcal/mol IL4

Question: And the Kd [3]?
Answer: 0.011 nM
